Measurements reported in patent US20260069726A1, “ZWITTERIONIC COMPOUNDS AND USES THEREOF” (priority 2022, published 2026).

Columns and labels:
[1] = assay type: in vitro ADME; details: plasma
Protocol: Serum binding assay for each one of [^68Ga]Ga-DOTA-TATEs were carried out as described in the literature. Compendiously, labelled [^68Ga]Ga-DOTA-TATEs (4-3 MBq) were added to freshly prepared 0.1 mL of anticoagulated human or mice plasma and the mixtures were incubated for 120 minutes at 37° C. This was followed by addition of 1.0 mL ice-cold acetonitrile and centrifuged for 2 minutes at 3000 RPM. The addition of acetonitrile had been repeated two times and all supernatants (denoted as A) were combined and the total radioactivity was measured using automated gamma counter. The radioactivity of the precipitate (B) was measured as well. The plasma-protein binding rate was calculated using Equation 2 below (n=3).

[2] = test system: AR42J (SSTR2 over-expressing) subcutaneous tumors; test: Ex vivo biodistribution in xenograft mice two hours post injection; details: for tumor uptake compared with the other compounds: AR42J tumor bearing mice; for tumor uptake compared with the other compounds / tumor uptake, biodistribution / tumor-to-kidney ratio: 2 hours post injection; for tumor uptake, biodistribution / tumor-to-kidney ratio: male AR42J tumor bearing mice; for pharmacokinetic of healthy-tissue clearance (words, figure legend) / tumor-tissue ratios (words, figure legend): mouse, in vivo
Protocol: (§1) The experimental protocol was approved by the University of Saskatchewan Committee on Animal Care and procedures were performed in accordance with the guidelines of the Canadian Council on Animal Care and the Canadian Nuclear Safety Commission. Aliquots of about 200 μL of each one of [^68Ga]Ga-DOTA-TATEs (7-5 MBq with <10% EtOH) were loaded to 0.5 mL syringes and >96% Radiochemical yields (RCY) were confirmed by using radio-HPLC followed by injection to healthy CD1 female mice and xenograft bearing male NOD-SCID gamma mice (USASK colony F1 005557, strain NOD.Cg-PrkdcscidIl2rg) (n=4), via tail vein catheter while in the PET scanner with image acquisition started, under anesthesia (2.5% isoflurane in O2, at a flow rate of 2 mL/min). 90-minute dynamic images of all four mice were collected simultaneously on the Sofie GNEXT PET/CT small animal imaging system using the included 4-mouse heated bed. The mice were euthanized (by cervical dislocation while they were under the effect of anesthesia) at 2 hrs post injection and blood and specific organs were harvested, weighed, and residual activity in the organs were measured by using an automated gamma counter. All images were reconstructed using VivoQuant® 2020 software (patch 1 64 bit, build vq-2020patch1-0-ga8255affc).
(§2) As done for healthy mouse studies, animals were awakened for 30 minutes following PET/CT and then euthanized at 2 hours post injection. Tissue/organ samples were collected, weighed, and the amount of activity present in the samples was measured using an automated gamma counter.

in vivo = details: male, NOD-SCID gamma (NSG), mouse, in vivo, iv, total radioactivity
Protocol: as §1, §2

[3] = assay type: in vitro ADME, human
Protocol: (§3) Serum stability was determined using a previously published method. Aliquots of each one of the [^68Ga]Ga-DOTA-TATEs (5.0 MBq) were added to 0.4 mL human or mice serum and incubated at 37° C. Aliquots (20 μL) were taken at various time intervals (10, 30, 60, 90, 120 minutes) and quenched in ice-cold acetonitrile. The samples were centrifuged, and the supernatants were diluted further with deionized water and were analyzed by radio-HPLC (a flow rate 0.65 mL/min with a gradient of CH3CN:H2O with 0.1% TFA in both). 5.0 MBq of [^68Ga]Ga-DOTA-TATEs were prepared in 0.4 mL of PBS and used as a reference in the radio-HPLC measurement for the stability in serum study.

[4] = assay type: in vitro ADME, mouse
Protocol: as §3

[5] = assay type: physicochemical; details: pH 7.4
Protocol: The lipophilicity of each one of the [^68Ga]Ga-DOTA-TATEs were assessed as described in the literature. In brief, two phases of 1-octanol and phosphate buffer (PBS) at a pH of 7.4 were presaturated with each other. The presaturated 1-octanol (3.0 mL) was added to 3.0 mL of presaturated PBS that had about 0.3 MBq of labelled [^68Ga]Ga-DOTA-TATEs. The mixture was vortexed for 1.0 minute at room temperature then centrifuged for 1.0 minute at 3000 RPM. 1.0 mL of each phase was taken and measured its activity in automated gamma counter. Log D7.4 was determined for at least three experiments using Equation 1 below, where CPM (count per minute) is the reading from the gamma counter.

[6] = parameters: species or system healthy CD1 mice; details: mouse, in vivo
Protocol: After imaging was complete, the mice were kept awake for an additional 30 minutes before being euthanized, bringing the total period of the injection to 2 hours. Biodistribution was performed by removing and weighing individual tissues and organs, and then measuring the activity of [^68Ga]Ga^3+ inside each sample using an automated gamma counter.

[7] = parameters: species or system healthy CD1 mice; details: mouse, in vivo; remark: listed apart in the source
Protocol: Experiments were performed in healthy female mice (CD1) to determine the behavior and distribution of these compounds (pharmacokinetics). Mice were catheterized via tail vein and injected while in the scanner, and dynamic PET-CT imaging was performed from time 0 until 1.5 hours post injection (n=4 each group, 4 mice in the scanner simultaneously).

[8] = test system: AR42J (SSTR2 over-expressing) subcutaneous tumors; test: Dynamic PET/CT imaging (0-90 minutes) in tumor-bearing mice; details: male NSG mice bearing AR42J tumors
Protocol: as §1

Structure (SMILES)	fraction unbound at 120 min [1]	tumor uptake compared with the other compounds ([2]; listed as Lys(ZW) derivative)	tumor uptake compared with the other compounds ([2]; listed as [^68Ga]Ga-DOTA-Lys(ZW)-PEG4-TATE)	tumor uptake, biodistribution [2]	tumor-to-kidney ratio [2]	pharmacokinetic of healthy-tissue clearance (words, figure legend) [2]	tumor-tissue ratios (words, figure legend) [2]	tissue uptake at 2 h (in vivo)	HSS % (2 hrs.) = Human Serum Stability [3]	MSS % (2 hrs.) = Mouse Serum Stability [4]	logD [5]	tumor uptake compared with the other compounds [2]	renal uptake, biodistribution [6]	fraction unbound [1]	start of excretion / renal elimination into the bladder [7]	kidney accumulation, retention and clearance seen in dynamic PET/CT [8]
C[C@@H](O)[C@H](NC(=O)[C@@H]1CSSC[C@H](NC(=O)[C@@H](Cc2ccccc2)NC(=O)CCOCCOCCOCCOCCNC(=O)[C@H](CCCC[N+](C)(C)CCCS(=O)(=O)[O-])NC(=O)CN2CCN(CC(=O)O)CCN(CC(=O)O)CCN(CC(=O)O)CC2)C(=O)N[C@@H](Cc2ccc(O)cc2)C(=O)N[C@H](Cc2c[nH]c3ccccc23)C(=O)N[C@@H](CCCCN)C(=O)N[C@@H]([C@@H](C)O)C(=O)N1)C(=O)O [DOTA-(ZW1)-PEG4-TATE]	0.534	greater tumor uptake	highest	20.6±2.5 % ID/g	0.63	faster	improved	32.9 ± 19.8 %ID/g	100%	100%	-3.39 ± 0.19					
C[C@@H](O)[C@H](NC(=O)[C@@H]1CSSC[C@H](NC(=O)[C@@H](Cc2ccccc2)NC(=O)CCOCCOCCOCCOCCNC(=O)[C@H](CCCC[N+](C)(C)CCCS(=O)(=O)[O-])NC(=O)[C@H](CCCC[N+](C)(C)CCCS(=O)(=O)[O-])NC(=O)CN2CCN(CC(=O)O)CCN(CC(=O)O)CCN(CC(=O)O)CC2)C(=O)N[C@@H](Cc2ccc(O)cc2)C(=O)N[C@H](Cc2c[nH]c3ccccc23)C(=O)N[C@@H](CCCCN)C(=O)N[C@@H]([C@@H](C)O)C(=O)N1)C(=O)O [DOTA-(ZW2)-PEG4-TATE]	0.515					faster	improved		100%	100%	-3.36 ± 0.18	reduced tumor uptake				
C[C@@H](O)[C@H](NC(=O)[C@@H]1CSSC[C@H](NC(=O)[C@@H](Cc2ccccc2)NC(=O)CCOCCOCCOCCOCCNC(=O)[C@@H](Cc2ccc[n+](CCCS(=O)(=O)[O-])c2)NC(=O)CN2CCN(CC(=O)O)CCN(CC(=O)O)CCN(CC(=O)O)CC2)C(=O)N[C@@H](Cc2ccc(O)cc2)C(=O)N[C@H](Cc2c[nH]c3ccccc23)C(=O)N[C@@H](CCCCN)C(=O)N[C@@H]([C@@H](C)O)C(=O)N1)C(=O)O [DOTA-Pyr(ZW)-PEG4-TATE]	0.575								100%	99.6 ± 0.1%	-3.57					
C[C@@H](O)[C@H](NC(=O)[C@@H]1CSSC[C@H](NC(=O)[C@@H](Cc2ccccc2)NC(=O)CN2CCN(CC(=O)O)CCN(CC(=O)O)CCN(CC(=O)O)CC2)C(=O)N[C@@H](Cc2ccc(O)cc2)C(=O)N[C@H](Cc2c[nH]c3ccccc23)C(=O)N[C@@H](CCCCN)C(=O)N[C@@H]([C@@H](C)O)C(=O)N1)C(=O)O [DOTA-TATE, DOTA-Tyr^3-octreotate, reference compound]				13.8±4.6 % ID/g	0.35			38.8 ± 42.7 %ID/g	100%	100%	-2.81		~74±51 D/g %	0.567	~70 minutes post injection	rapid accumulation and protracted retention
